Test results taken from paper PMC3870252, “The N-Terminal Membrane-Spanning Domain of the Escherichia coli DNA Translocase FtsK Hexamerizes at Midcell” (mBio, 2013).
Values joined by “and” are separate entries in the source; they are usually repeats but may differ in a detail not shown here. Equal entries are not always repeated.

What was measured:
[1] = target: EcFtsKN (purified N-terminal domain of FtsK from E. coli) (E. coli); assay: oligomer bands on SDS-PAGE of SEC fractions; fractions of the Superdex S-200 second purification step at a lower DDM detergent concentration, 12% Coomassie blue-stained SDS-PAGE
[2] = target: TtFtsKN (purified N-terminal domain of FtsK from Thermoanaerobacter tengcongensis) (Thermoanaerobacter tengcongensis); assay: SEC-MALS; Superdex S-200 column, in DDM detergent; masses after subtraction of the micelle contribution; hexamer and monomer peaks
[3] = target: TtFtsKN (purified N-terminal domain of FtsK from Thermoanaerobacter tengcongensis) (Thermoanaerobacter tengcongensis); assay: oligomer bands on SDS-PAGE of SEC fractions; fractions of the Superdex S-200 second purification step at a lower DDM detergent concentration, 12% Coomassie blue-stained SDS-PAGE
[4] = target: the molecule itself; assay: quantitative live-cell fluorescence stoichiometry (widefield microscopy); live E. coli in minimal glycerol medium; integrated midcell fluorescence divided by the intensity of a single YPet fluorophore; periodicity from the power spectrum of measured stoichiometries

TtFtsKN (purified N-terminal domain of FtsK from Thermoanaerobacter tengcongensis) (domain or fragment), sequence (Q8R5S4 371-568): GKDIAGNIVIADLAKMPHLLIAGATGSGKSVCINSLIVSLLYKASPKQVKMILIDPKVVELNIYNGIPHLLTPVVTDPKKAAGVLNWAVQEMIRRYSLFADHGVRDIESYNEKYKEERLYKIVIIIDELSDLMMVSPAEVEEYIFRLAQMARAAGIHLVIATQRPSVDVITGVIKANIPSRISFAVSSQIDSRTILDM

| Molecule | stoichiometry N [4] | also measured |
| --- | --- | --- |
| EcFtsKN (purified N-terminal domain of FtsK from E. coli) (domain or fragment) |  | stoichiometry N [1]: 2 and 6 |
| TtFtsKN (purified N-terminal domain of FtsK from Thermoanaerobacter tengcongensis) (domain or fragment) |  | stoichiometry N [2]: 6; stoichiometry N [3]: 2 and 6 |
| FtsK-YPet (wild-type E. coli FtsK with a C-terminal YPet fusion) (natural protein, UniProt P46889 1-1329, looked up, FtsK, DNA translocase, Escherichia coli; wild-type protein, 1,329 amino acids, integral membrane protein; also called wild-type FtsK; source: expressed from the endogenous wild-type chromosomal locus, E. coli K-12 AB1157 derivative, in live cells; not shown: YPet, C-terminal, kept) MSQEYIEDKEVTLTKLSSGRRLLEALLILIVLFAVWLMAALLSFNPSDPSWSQTAWHEPIHNLGGMPGAWLADTLFFIFGVMAYTIPVIIVGGCWFAWRHQSSDEYIDYFAVSLRIIGVLALILTSCGLAAINADDIWYFASGGVIGSLLSTTLQPLLHSSGGTIALLCVWAAGLTLFTGWSWVTIAEKLGGWILNILTFASNRTRRDDTWVDEDEYEDDEEYEDENHGKQHESRRARILRGALARRKRLAEKFINPMGRQTDAALFSGKRMDDDEEITYTARGVAADPDDVLFSGNRATQPEYDEYDPLLNGAPITEPVAVAAAATTATQSWAAPVEPVTQTPPVASVDVPPAQPTVAWQPVPGPQTGEPVIAPAPEGYPQQSQYAQPAVQYNEPLQQPVQPQQPYYAPAAEQPAQQPYYAPAPEQPVAGNAWQAEEQQSTFAPQSTYQTEQTYQQPAAQEPLYQQPQPVEQQPVVEPEPVVEETKPARPPLYYFEEVEEKRAREREQLAAWYQPIPEPVKEPEPIKSSLKAPSVAAVPPVEAAAAVSPLASGVKKATLATGAAATVAAPVFSLANSGGPRPQVKEGIGPQLPRPKRIRVPTRRELASYGIKLPSQRAAEEKAREAQRNQYDSGDQYNDDEIDAMQQDELARQFAQTQQQRYGEQYQHDVPVNAEDADAAAEAELARQFAQTQQQRYSGEQPAGANPFSLDDFEFSPMKALLDDGPHEPLFTPIVEPVQQPQQPVAPQQQYQQPQQPVPPQPQYQQPQQPVAPQPQYQQPQQPVAPQQQYQQPQQPVAPQQQYQQPQQPVAPQPQDTLLHPLLMRNGDSRPLHKPTTPLPSLDLLTPPPSEVEPVDTFALEQMARLVEARLADFRIKADVVNYSPGPVITRFELNLAPGVKAARISNLSRDLARSLSTVAVRVVEVIPGKPYVGLELPNKKRQTVYLREVLDNAKFRDNPSPLTVVLGKDIAGEPVVADLAKMPHLLVAGTTGSGKSVGVNAMILSMLYKAQPEDVRFIMIDPKMLELSVYEGIPHLLTEVVTDMKDAANALRWCVNEMERRYKLMSALGVRNLAGYNEKIAEADRMMRPIPDPYWKPGDSMDAQHPVLKKEPYIVVLVDEFADLMMTVGKKVEELIARLAQKARAAGIHLVLATQRPSVDVITGLIKANIPTRIAFTVSSKIDSRTILDQAGAESLLGMGDMLYSGPNSTLPVRVHGAFVRDQEVHAVVQDWKARGRPQYVDGITSDSESEGGAGGFDGAEELDPLFDQAVQFVTEKRKASISGVQRQFRIGYNRAARIIEQMEAQGIVSEQGHNGNREVLAPPPFD | 6.12 |  |
| FtsKN-YPet (N-terminal domain of E. coli FtsK, amino acids 1 to 210) (domain or fragment, UniProt P46889 1-210, looked up, FtsK, Escherichia coli, N-terminal membrane-spanning domain, amino acids 1 to 210; source: expressed from the endogenous chromosomal locus, E. coli K-12 AB1157 derivative, in live cells; not shown: YPet, C-terminal, kept) MSQEYIEDKEVTLTKLSSGRRLLEALLILIVLFAVWLMAALLSFNPSDPSWSQTAWHEPIHNLGGMPGAWLADTLFFIFGVMAYTIPVIIVGGCWFAWRHQSSDEYIDYFAVSLRIIGVLALILTSCGLAAINADDIWYFASGGVIGSLLSTTLQPLLHSSGGTIALLCVWAAGLTLFTGWSWVTIAEKLGGWILNILTFASNRTRRDDT | 6 |  |
| FtsKΔC-YPet (FtsK derivative lacking the C-terminal domain, amino acids 1 to 818) (domain or fragment, E. coli, UniProt P46889 1-818, looked up, FtsK, Escherichia coli, amino acids 1 to 818 (lacks the C-terminal translocase domain); source: expressed from the endogenous chromosomal locus, E. coli K-12 AB1157 derivative, in live cells; not shown: YPet, C-terminal, kept) MSQEYIEDKEVTLTKLSSGRRLLEALLILIVLFAVWLMAALLSFNPSDPSWSQTAWHEPIHNLGGMPGAWLADTLFFIFGVMAYTIPVIIVGGCWFAWRHQSSDEYIDYFAVSLRIIGVLALILTSCGLAAINADDIWYFASGGVIGSLLSTTLQPLLHSSGGTIALLCVWAAGLTLFTGWSWVTIAEKLGGWILNILTFASNRTRRDDTWVDEDEYEDDEEYEDENHGKQHESRRARILRGALARRKRLAEKFINPMGRQTDAALFSGKRMDDDEEITYTARGVAADPDDVLFSGNRATQPEYDEYDPLLNGAPITEPVAVAAAATTATQSWAAPVEPVTQTPPVASVDVPPAQPTVAWQPVPGPQTGEPVIAPAPEGYPQQSQYAQPAVQYNEPLQQPVQPQQPYYAPAAEQPAQQPYYAPAPEQPVAGNAWQAEEQQSTFAPQSTYQTEQTYQQPAAQEPLYQQPQPVEQQPVVEPEPVVEETKPARPPLYYFEEVEEKRAREREQLAAWYQPIPEPVKEPEPIKSSLKAPSVAAVPPVEAAAAVSPLASGVKKATLATGAAATVAAPVFSLANSGGPRPQVKEGIGPQLPRPKRIRVPTRRELASYGIKLPSQRAAEEKAREAQRNQYDSGDQYNDDEIDAMQQDELARQFAQTQQQRYGEQYQHDVPVNAEDADAAAEAELARQFAQTQQQRYSGEQPAGANPFSLDDFEFSPMKALLDDGPHEPLFTPIVEPVQQPQQPVAPQQQYQQPQQPVPPQPQYQQPQQPVAPQPQYQQPQQPVAPQQQYQQPQQPVAPQQQYQQPQQPVAPQPQDT | 6.05 |  |
